{"source": "paper PMC8769549", "key": {"[1]": {"biological_target": "SARS-CoV-2 nsp3a (1 to 206) (SARS-CoV-2)", "test": "ITC"}, "[2]": {"biological_target": "SARS-CoV-2 nsp3 ubiquitin-like domain Ubl1 (1 to 111) (SARS-CoV-2)", "test": "ITC"}}, "data": [{"substance": "SARS-CoV-2 nucleoprotein N123 (domains N1, N2 and N3) (domain or fragment)", "values": [{"measurement": "Kd", "setting": "[1]", "result": 131, "unit": "nM"}, {"measurement": "stoichiometry N", "setting": "[1]", "result": 0.665}, {"measurement": "Kd", "setting": "[2]", "result": 72, "unit": "nM"}, {"measurement": "stoichiometry N", "setting": "[2]", "result": 0.903}]}]}
